# Experimental data from patent US10189887B2, “Polypeptides and uses thereof for reducing CD95-mediated cell motility” (INSERM (INSTITUT NATIONAL DE LA SANTÉ ET DE LA RECHERCHE …, priority 2014, dated 2019).
# How the values were obtained:
# [1] = system: CD95-mediated Ca^2+ response; test: Calcium response to cl-CD95L in MEF; format: cell-based; details: MEFs pre-incubated 1 hr, 10 μM peptide; 100 ng/ml cl-CD95L
# Method: Cells were loaded with Fura2-AM (1 μM) at resting temperature for 30 min in Hank's Balanced Salt Solution (HBSS). After washing with HBSS, the cells were incubated for 15 min in the absence of Fura2-AM to complete de-esterification of the dye. Cells were placed in a thermostated chamber (37° C.) of an inverted epifluorescence microscope (Olympus IX70) equipped with a ×40, UApo/340-1.15 W water-immersion objective (Olympus), and fluorescence micrograph images were captured at 510 nm and at 12-bit resolution by a fast-scan camera (CoolSNAP fx Monochrome, Photometrics). To minimize UV light exposure, 4×4 binning function was used. Fura2-AM was alternately excited at 340 and 380 nm, and ratios of the resulting images (excitations at 340 and 380 nm and emission filter at 520 nm) were produced at constant intervals (5 s or 10 s according to the stimulus). […] Fluorescent images were pseudocolored using the IMD display mode in MetaFluor and assembled without further manipulation in Photoshop (Adobe). Raw data were acquired with MetaFluor and graphed in Origin (OriginLab). […]
# CD95/PLCγ1 = target: T1, CD95/PLCγ1 (Homo sapiens, UniProt P19174); test: PLCγ1 recruitment to CD95 (immunoprecipitation and immunoblotting); format: cell-based
# T1 construct: endogenous in cells; host or cells: CEM (human leukemic T-cell line)
# T1 sequence (P19174 2-1290 limits assumed): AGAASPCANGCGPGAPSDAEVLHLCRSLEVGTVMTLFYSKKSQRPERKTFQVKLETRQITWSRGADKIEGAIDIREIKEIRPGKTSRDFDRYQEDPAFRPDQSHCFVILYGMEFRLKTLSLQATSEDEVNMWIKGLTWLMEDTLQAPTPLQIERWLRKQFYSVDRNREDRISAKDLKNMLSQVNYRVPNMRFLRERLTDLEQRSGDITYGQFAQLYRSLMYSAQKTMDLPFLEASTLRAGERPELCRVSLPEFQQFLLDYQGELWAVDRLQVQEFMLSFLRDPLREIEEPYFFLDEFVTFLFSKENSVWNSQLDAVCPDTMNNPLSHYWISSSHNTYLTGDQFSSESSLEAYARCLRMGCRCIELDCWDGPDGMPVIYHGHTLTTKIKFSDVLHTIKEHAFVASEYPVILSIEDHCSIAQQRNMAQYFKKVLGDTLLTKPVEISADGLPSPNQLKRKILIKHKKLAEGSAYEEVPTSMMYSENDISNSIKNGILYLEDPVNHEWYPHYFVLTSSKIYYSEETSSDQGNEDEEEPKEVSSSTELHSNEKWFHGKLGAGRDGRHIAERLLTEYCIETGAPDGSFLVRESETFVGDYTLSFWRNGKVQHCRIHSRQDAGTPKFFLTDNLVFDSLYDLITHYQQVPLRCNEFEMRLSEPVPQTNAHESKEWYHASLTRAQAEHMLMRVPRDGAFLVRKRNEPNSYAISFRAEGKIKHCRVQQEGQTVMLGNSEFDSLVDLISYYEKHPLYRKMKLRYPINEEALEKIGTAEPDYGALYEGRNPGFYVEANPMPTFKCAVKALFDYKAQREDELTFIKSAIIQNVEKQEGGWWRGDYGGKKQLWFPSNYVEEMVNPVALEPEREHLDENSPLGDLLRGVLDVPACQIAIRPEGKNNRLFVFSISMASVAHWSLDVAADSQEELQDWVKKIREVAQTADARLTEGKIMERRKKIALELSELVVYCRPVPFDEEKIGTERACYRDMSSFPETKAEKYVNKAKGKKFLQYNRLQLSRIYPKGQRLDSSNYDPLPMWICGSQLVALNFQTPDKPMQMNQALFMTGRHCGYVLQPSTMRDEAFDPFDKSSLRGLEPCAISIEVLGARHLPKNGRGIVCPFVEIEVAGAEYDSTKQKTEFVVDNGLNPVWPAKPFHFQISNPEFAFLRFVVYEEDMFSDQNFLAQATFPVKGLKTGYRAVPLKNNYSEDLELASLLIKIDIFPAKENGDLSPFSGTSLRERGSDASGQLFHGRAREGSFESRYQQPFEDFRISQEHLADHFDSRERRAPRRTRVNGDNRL
# Method: T-cells (5×10^7 cells per condition) were stimulated with Ig-CD95L or cl-CD95L (100 ng/mL) for indicated times at 37° C. Cells were lysed, incubated with APO1.3 (1 ug/mL) for 15 min at 4° C. and CD95 was immunoprecipitated using A/G protein-coupled magnetic beads (Ademtech, Pessac, France) for 1 h. After extensive washing, the immune complex was resolved by SDS-PAGE and immunoblotting was performed with indicated antibodies.
# Cells were lyzed for 30 minutes at 4° C. in lysis buffer (25 mM HEPES pH 7.4, 1% v/v Triton X-100, 150 mM NaCl, 2 mM EGTA supplemented with a mix of protease inhibitors (Sigma-Aldrich)). Protein concentration was determined by the bicinchoninic acid method (PIERCE, Rockford, Ill., USA) according to the manufacturer's protocol. Proteins were separated on a 12% SDS-PAGE and transferred to a nitrocellulose membrane (GE Healthcare, Buckinghamshire, England). The membrane was blocked 15 minutes with TBST (50 mM Tris, 160 mM NaCl, 0.05% v/v Tween 20, pH 7.8) containing 5% w/v dried skimmed milk (TBSTM). Primary antibody was incubated overnight at 4° C. in TBSTM. The membrane was intensively washed (TBST) and then the peroxydase-labeled anti-rabbit or anti-mouse (SouthernBiotech, Birmingham, Ala., US) was added for 45 minutes. The proteins were visualized with the enhanced chemiluminescence substrate kit (ECL, GE Healthcare).
substance,measurement,setting,value
TAT-CID: cell penetrating peptide linking the 36-amino acid-stretch of CID (CD95 residues 175 to 210) to the HIV-TAT sequence; SEQ ID NO: 6 (RKKRRQRRRKRKEVQKTCRKHRKENQGSHESPTLNPETVAINLSD; TAT-CID),initial phase of the calcium response to cl-CD95L,[1],blocked it
same,PLCγ1 recruitment to CD95,"CD95/PLCγ1; T cell lines Jurkat and CEM pre-incubated 1 h with 10 μM, cl-CD95L 100 ng/mL",impaired PLCγ1 recruitment
same,PLCγ1 binding to CD95,"CD95/PLCγ1; activated T lymphocytes from healthy subjects, pre-incubation",inhibited the PLCγ1 binding to CD95
